Results published in patent US20250353917A1 (SYSTIMMUNE, published 2025).
Where two headings read alike, the source gives them in different places.

Key:
EGFR on BxPC-3 cells [1] = molecular target: T1, EGFR on BxPC-3 cells (UniProt P00533 25-1210, limits assumed); assay: cell-based or functional assay
EGFR on BxPC-3 cells [2] = molecular target: T1, EGFR on BxPC-3 cells; assay: cell-based or functional assay; remark: listed apart in the source
His-tagged human EGFR [3] = molecular target: T2, His-tagged human EGFR (human, UniProt P00533 25-645, limits assumed); assay: BLI (Octet), scFv-His coupled to AR2G sensors, His-tagged human EGFR in solution, 1:1 global fit
T2 construct: also called huEGFR
Experimental: (§1) Fc-containing protein was captured to anti-human Fc (AHC) sensor tips by loading for 180 seconds at 10 μg/ml. Alternatively, His-tagged proteins were covalently coupled at 10 ug/ml to AR2G tips using manufacturer protocol. After a 60-second baseline step, a 180- to 300-second association phase with serial dilutions (0-200 nM; 1:2.5 dilution factor) or a single 100 nM concentration of purified human EGFR in assay buffer (phosphate-buffered saline containing 0.1% BSA, 0.05% Tween20) was performed, followed by a 300- to 600—second dissociation phase in assay buffer. Regeneration was achieved using 10 mM glycine, pH 1.5. Binding curves were globally fit to a 1:1 model to extract the dissociation constants, KD. Binding kinetics for each protein were assessed in duplicate, with tabulated values reported as average±standard deviation.

His-tagged human EGFR [4] = molecular target: T2, His-tagged human EGFR; assay: as above; remark: listed apart in the source
Experimental: as §1

B1: SI-68P17 (other)
heavy: DVVMTQSPSTLSASVGDRVTINCQASESISSWLAWYQQKPGKAPKLLIYEASKLASGVPSRFSGSGSGTEFTLTISSLQPDDFATYYCQGYFYFISRTYVNSFGGGTKVEIKGGGGSGGGGSGGGGSGGGGSEVQLVESGGGLVQPGGSLRLSCAASGFTISTNAMSWVRQAPGKGLEWIGVITGRDITYYASWAKGRFTISRDNSKNTLYLQMNSLRAEDTAVYYCARDGGSSAITSNNIWGQGTLVTVSSGGGGSGGGGSQVQLQQSGPGLVKPSETLSITCTVSGFSLTNYGVHWIRQAPGKGLEWLGVIWSGGNTDYNTPFTSRFTITKDNSKNQVYFKLRSVRADDTAIYYCARALTYYDYEFAYWGQGTLVTVSSASTKGPSVFPLAPSSKSTSGGTAALGCLVKDYFPEPVTVSWNSGALTSGVHTFPAVLQSSGLYSLSSVVTVPSSSLGTQTYICNVNHKPSNTKVDKRVEPKSCDKTHTCPPCPAPEAAGGPSVFLFPPKPKDTLMISRTPEVTCVVVDVSHEDPEVKFNWYVDGVEVHNAKTKPREEQYNSTYRVVSVLTVLHQDWLNGKEYKCAVSNKALPAPIEKTISKAKGQPREPQVYTLPPSRDELTKNQVSLSCAVKGFYPSDIAVEWESNGQPENNYKTTPPVLDSDGSFFLVSKLTVDKSRWQQGNVFSCSVMHEALHNHYTQKSLSLSPGGGGGSGGGGSDVVMTQSPSSVSASVGDRVTITCQASQNIRTYLSWYQQKPGKAPKLLIYAAANLASGVPSRFSGSGSGTDFTLTISDLEPGDAATYYCQSTYLGTDYVGGAFGGGTKLTVLGGGGSGGGGSGGGGSGGGGSEVQLVESGGGLVQPGGSLRLSCTASGFTISSYHMQWVRQAPGKGLEYIGTISSGGNVYYASSARGRFTISRPSSKNTVDLQMNSLRAEDTAVYYCARDSGYSDPMWGQGTLVTVSS
light: ENVLTQSPASLSASPGERVTITCSASSSVSYMHWYQQKPGQAPKLWIYDTSKLASGVPSRFSGSGSGNDHTLTISSMEPEDFATYYCFQGSVYPFTFGQGTKVTVLGGGGSGGGGSGGGGSGGGGSQVTLKESGPGLVQPGQTLSLTCAFSGFSLSTSGMGVGWIRQPPGKGLEWLAHIWWDDDKRYNPALKSRLTISKDTSKNQVYLQMNSLDAEDTAVYYCARMELWSYYFDYWGQGTLVTVSSGGGGSGGGGSEIVLTQSPSTLSVSPGERATFSCRASQSIGTNIHWYQQKPGKPPRLLIKYASESISGIPDRFSGSGSGTEFTLTISSVQSEDFAVYYCQQNNNWPTTFGPGTKLTVLRTVAAPSVFIFPPSDEQLKSGTASVVCLLNNFYPREAKVQWKVDNALQSGNSQESVTEQDSKDSTYSLSSTLTLSKADYEKHKVYACEVTHQGLSSPVTKSFNRGECGGDKTHTCPPCPAPEAAGGPSVFLFPPKPKDTLMISRTPEVTCVVVDVSHEDPEVKFNWYVDGVEVHNAKTKPREEQYNSTYRVVSVLTVLHQDWLNGKEYKCAVSNKALPAPIEKTISKAKGQPREPQVYTLPPSRDELTKNQVSLWCLVKGFYPSDIAVEWESNGQPENNYKTTPPVLDSDGSFFLYSKLTVDKSRWQQGNVFSCSVMHEALHNRFTQKSLSLSPGGGGGSGGGGSDIQMTQSPSTLSASVGDRVTITCQASQSISSHLNWYQQKPGKAPKLLIYKASTLASGVPSRFSGSGSGTEFTLTISSLQPDDFATYYCQQGYSWGNVDNVFGGGTKVTVLGGGGSGGGGSGGGGSGGGGSEVQLLESGGGLVQPGGSLSLSCAASGFSFSSGYDMCWVRQAPGKGLEWIACIAAGSAGITYDANWAKGRFTISRDNSKNTLYLQMNSLRAEDTAVYYCARSAFSFDYAMDLWGQGTLVTVSS
For B1, the “TDCC EC50 (pM)” value (EGFR on BxPC-3 cells [1]) was 0.322 pM.

B2: SI-79X3 (bispecific antibody, human IgG1, kappa)
heavy 1: QVQLQQSGPGLVKPSETLSITCTVSGFSLTNYGVHWIRQAPGKGLEWLGVIWSGGNTDYNTPFTSRFTITKDNSKNQVYFKLRSVRADDTAIYYCARALTYYDYEFAYWGQGTLVTVSSASTKGPSVFPLAPSSKSTSGGTAALGCLVKDYFPEPVTVSWNSGALTSGVHTFPAVLQSSGLYSLSSVVTVPSSSLGTQTYICNVNHKPSNTKVDKRVEPKSCDKTHTCPPCPAPEAAGAPSVFLFPPKPKDTLMISRTPEVTCVVVDVSHEDPEVKFNWYVDGVEVHNAKTKPREEQYNSTYRVVSVLTVLHQDWLNGKEYKCAVSNKALPAPIEKTISKAKGQPREPQVYTLPPSRDELTKNQVSLTCLVKGFYPSDIAVEWESNGQPENNYKTTPPVLDSDGSFFLYSRLTVDKSRWQQGNVFSCSVMHEALHNHYTQKSLSLSPG
heavy 2: not shown
light 1: EIVLTQSPSTLSVSPGERATFSCRASQSIGTNIHWYQQKPGKPPRLLIKYASESISGIPDRFSGSGSGTEFTLTISSVQSEDFAVYYCQQNNNWPTTFGPGTKLTVLRTVAAPSVFIFPPSDEQLKSGTASVVCLLNNFYPREAKVQWKVDNALQSGNSQESVTEQDSKDSTYSLSSTLTLSKADYEKHKVYACEVTHQGLSSPVTKSFNRGEC
light 2: not shown
For B2, the “*EC50 (pM), TDCC, depletion of luciferized BxPC3 cells with activated T cells” value (EGFR on BxPC-3 cells [2]) was 20.3 pM.

B3: SI-68P13 (other)
heavy: EIVLTQSPSTLSVSPGERATFSCRASQSIGTNIHWYQQKPGKPPRLLIKYASESISGIPDRFSGSGSGTEFTLTISSVQSEDFAVYYCQQNNNWPTTFGPGTKLTVLGGGGSGGGGSGGGGSGGGGSQVQLQQSGPGLVKPSETLSITCTVSGFSLTNYGVHWIRQAPGKGLEWLGVIWSGGNTDYNTPFTSRFTITKDNSKNQVYFKLRSVRADDTAIYYCARALTYYDYEFAYWGQGTLVTVSSGGGGSGGGGSEVQLVESGGGLVQPGGSLRLSCAASGFTISTNAMSWVRQAPGKGLEWIGVITGRDITYYASWAKGRFTISRDNSKNTLYLQMNSLRAEDTAVYYCARDGGSSAITSNNIWGQGTLVTVSSASTKGPSVFPLAPSSKSTSGGTAALGCLVKDYFPEPVTVSWNSGALTSGVHTFPAVLQSSGLYSLSSVVTVPSSSLGTQTYICNVNHKPSNTKVDKRVEPKSCDKTHTCPPCPAPEAAGGPSVFLFPPKPKDTLMISRTPEVTCVVVDVSHEDPEVKFNWYVDGVEVHNAKTKPREEQYNSTYRVVSVLTVLHQDWLNGKEYKCAVSNKALPAPIEKTISKAKGQPREPQVYTLPPSRDELTKNQVSLSCAVKGFYPSDIAVEWESNGQPENNYKTTPPVLDSDGSFFLVSKLTVDKSRWQQGNVFSCSVMHEALHNHYTQKSLSLSPGGGGGSGGGGSDVVMTQSPSSVSASVGDRVTITCQASQNIRTYLSWYQQKPGKAPKLLIYAAANLASGVPSRFSGSGSGTDFTLTISDLEPGDAATYYCQSTYLGTDYVGGAFGGGTKLTVLGGGGSGGGGSGGGGSGGGGSEVQLVESGGGLVQPGGSLRLSCTASGFTISSYHMQWVRQAPGKGLEYIGTISSGGNVYYASSARGRFTISRPSSKNTVDLQMNSLRAEDTAVYYCARDSGYSDPMWGQGTLVTVSS
light: ENVLTQSPASLSASPGERVTITCSASSSVSYMHWYQQKPGQAPKLWIYDTSKLASGVPSRFSGSGSGNDHTLTISSMEPEDFATYYCFQGSVYPFTFGQGTKVTVLGGGGSGGGGSGGGGSGGGGSQVTLKESGPGLVQPGQTLSLTCAFSGFSLSTSGMGVGWIRQPPGKGLEWLAHIWWDDDKRYNPALKSRLTISKDTSKNQVYLQMNSLDAEDTAVYYCARMELWSYYFDYWGQGTLVTVSSGGGGSGGGGSDVVMTQSPSTLSASVGDRVTINCQASESISSWLAWYQQKPGKAPKLLIYEASKLASGVPSRFSGSGSGTEFTLTISSLQPDDFATYYCQGYFYFISRTYVNSFGGGTKVEIKRTVAAPSVFIFPPSDEQLKSGTASVVCLLNNFYPREAKVQWKVDNALQSGNSQESVTEQDSKDSTYSLSSTLTLSKADYEKHKVYACEVTHQGLSSPVTKSFNRGECGGDKTHTCPPCPAPEAAGGPSVFLFPPKPKDTLMISRTPEVTCVVVDVSHEDPEVKFNWYVDGVEVHNAKTKPREEQYNSTYRVVSVLTVLHQDWLNGKEYKCAVSNKALPAPIEKTISKAKGQPREPQVYTLPPSRDELTKNQVSLWCLVKGFYPSDIAVEWESNGQPENNYKTTPPVLDSDGSFFLYSKLTVDKSRWQQGNVFSCSVMHEALHNRFTQKSLSLSPGGGGGSGGGGSDIQMTQSPSTLSASVGDRVTITCQASQSISSHLNWYQQKPGKAPKLLIYKASTLASGVPSRFSGSGSGTEFTLTISSLQPDDFATYYCQQGYSWGNVDNVFGGGTKVTVLGGGGSGGGGSGGGGSGGGGSEVQLLESGGGLVQPGGSLSLSCAASGFSFSSGYDMCWVRQAPGKGLEWIACIAAGSAGITYDANWAKGRFTISRDNSKNTLYLQMNSLRAEDTAVYYCARSAFSFDYAMDLWGQGTLVTVSS
For B3, the “TDCC EC50 (pM)” value (EGFR on BxPC-3 cells [1]) was 0.259 pM.

B4: SI-79R2 (scFv)
scFv: EIVMTQSPSTLSASVGDRVIITCRASQSIGTNIHWYQQKPGKAPKLLIYYASESISGIPSRFSGSGSGAEFTLTISSLQPDDFATYYCQQNNNWPTTFGQGTKLTVLGGGGSGGGGSGGGGSGGGGSEVQLVESGGGLVQPGGSLRLSCTVSGFSLTNYGVHWVRQAPGKGLEWVGVIWSGGNTDYNTPFTSRFTISRDTSKNTVYLQMNSLRAEDTAVYYCARALTYYDYEFAYWGQGTLVTVSSGSHHHHHH
notes: the entry holds the whole construct; also called H1 scFv-6His; humanized scFv
Binder B4 has a Kd (His-tagged human EGFR [3]) of 12 nM, a koff (His-tagged human EGFR [3]) of 0.0107 s⁻¹ and a kon (His-tagged human EGFR [3]) of 894000 M⁻¹ s⁻¹. The Kd (His-tagged human EGFR [4]) was 12 nM.
